US20190382488A1 (IMAGINAB, published 2019)

Key:
[1] = target: T1, cell-surface human CD8 (human, UniProt P01732 22-235); test: flow cytometry on HPB-ALL cells, Protein L-biotin then streptavidin-APC
T1 construct: the cell is named under assay; also called cellular human CD8; CD8 on PC3-CD8 cells
Procedure: Flow cytometry analysis of cys-diabody (+/−C-terminal cysteine conjugation to Desferoxamine) binding to cell-surface human CD8 on HPB-ALL cells was performed. Cells were stained with respective concentrations of cys-diabody, washed, stained with a secondary Protein L conjugated to Biotin, washed, then stained with a tertiary streptavidin-APC. Analysis was performed with 10,000 events/point in triplicate for each concentration. The results are shown in graph format in FIG. 30C. The graph presents the mean fluorescence intensity (MFI) vs. the log of the concentration (nM). Error bars represent the standard error. The data indicates an EC₅₀ of 0.04 nM and 0.06 nM.

[2] = target: T2, recombinant human CD8 (rhCD8) (human, UniProt P01732 22-182); test: SPR (BIAcore), minibody captured via anti-human IgG Fc, hCD8 analyte at 50 nM
T2 construct: Soluble purified recombinant protein; also called purified recombinant human CD8 protein; soluble CD8
T2 sequence (P01732 22-182 limits assumed): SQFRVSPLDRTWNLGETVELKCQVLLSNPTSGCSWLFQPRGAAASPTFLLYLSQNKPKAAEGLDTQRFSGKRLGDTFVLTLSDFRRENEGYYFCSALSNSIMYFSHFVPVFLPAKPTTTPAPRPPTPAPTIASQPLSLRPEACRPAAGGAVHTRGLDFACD
Source text: Surface plasma resonance (SPR) was used to determine the binding affinity for all the IAb_Mb_CD8 variants to recombinant human CD8 (Table 8.0). The minibody protein in the supernatant was captured on to the BIAcore chip using an anti-human IgG (Fc-specific) antibody. The amount of minibody captured on the chip was normalized to enable a direct comparison of binding affinity between the variants as a kinetic “scouting” experiment to rank affinities. The rhCD8 protein was passed over the captured minibody protein to measure binding.
Table 8.0 summarizes the measured association (ka), dissociation (kd), and kD constants for the IAb_Mb_CD8 variants binding to recombinant hCD8. The variants were captured on a BIAcore chip using anti-human Fc-specific IgG antibody.

[3] = target: T1, cell-surface human CD8; test: flow cytometry on CD8+ cells, transfection supernatant neat to 1:81, anti-human IgG (Fc-specific)-APC
Procedure: FIGS. 17A-17D display the results of the flow cytometry analysis of the IAb_Mb_CD8 variants. All histograms show allophycocyanin (APC) signal vs. counts. Supernatants from transfection of the variants at different dilutions were incubated with CD8+ cells. Cells were washed and subsequently stained with a secondary anti-human IgG (Fc-specific) APC conjugated antibody. 1×10⁵ cells were stained per point and analysis was performed with 10,000 events/point.

[4] = target: T1, cell-surface human CD8; test: flow cytometry, HPB-ALL cells
Procedure: (§1) Flow cytometry analysis of minibodies binding to cell-surface human CD8 on HPB-ALL cells was performed. Cells were stained with respective concentrations of minibody, washed, and then stained with a secondary anti-human IgG (Fc-specific) APC-conjugated antibody. Analysis was performed with 10,000 events/point in triplicate for each concentration. The results are shown in graph format in FIG. 29A. The graph presents the normalized mean fluorescence intensity (MFI) vs. the log of the concentration (nM). Error bars represent the standard error. The data indicates an EC₅₀ of 0.15 nM and 0.19 nM.
as §1, with “analysis of IgG2 minibodies binding” for “analysis of minibodies binding”, “in FIG. 29E. The graph” for “in FIG. 29A. The graph”, “EC₅₀ of 0.1 nM, 0.13 nM, and 0.08” for “EC₅₀ of 0.15 nM and 0.19”, “nM, and 0.08 nM.” for “nM and 0.19 nM.”

[5] = target: T1, cell-surface human CD8; test: flow cytometry on HPB-ALL cells, anti-human IgG (Fc-specific)-APC
Procedure: as §1, with “analysis of IgG2 minibodies binding” for “analysis of minibodies binding”, “in FIG. 29E. The graph” for “in FIG. 29A. The graph”, “EC₅₀ of 0.1 nM, 0.13 nM, and 0.08” for “EC₅₀ of 0.15 nM and 0.19”, “nM, and 0.08 nM.” for “nM and 0.19 nM.”

T1 sequence (P01732 22-235 limits assumed): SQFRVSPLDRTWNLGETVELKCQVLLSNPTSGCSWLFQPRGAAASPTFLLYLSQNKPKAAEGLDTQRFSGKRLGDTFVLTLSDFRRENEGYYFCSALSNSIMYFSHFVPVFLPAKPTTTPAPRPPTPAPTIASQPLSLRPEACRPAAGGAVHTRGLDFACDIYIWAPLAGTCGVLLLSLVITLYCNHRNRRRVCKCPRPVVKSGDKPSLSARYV

Binder | Ka [2] [M⁻¹] | Kd [2] [nM] | koff [2] [s⁻¹] | kon [2] [M⁻¹ s⁻¹] | other results
IAb_Cys-Db3b_CD8-Df (other, Desferoxamine (Df) conjugated to the C-terminal cysteine, also called Df-labeled cys-diabody) DVQITQSPSSLSASVGDRVTITCRTSRSISQYLAWYQQKPGKVPKLLIYSGSTLQSGVPSRFSGSGSGTDFTLTISSLQPEDVATYYCQQHNENPLTFGGGTKVEIKGGGSGGGGEVQLVESGGGLVQPGGSLRLSCAASGFNIKDTYIHFVRQAPGKGLEWIGRIDPANDNTLYASKFQGKATISADTSKNTAYLQMNSLRAEDTAVYYCGRGYGYYVFDHWGQGTLVTVSSGGC |  |  |  |  | EC50 [1]: 0.06 nM
IAb_Mb2a_CD8 (other, also called variant 2a) EVQLVESGGGLVQPGGSLRLSCAASGFNIKDTYIHFVRQAPGKGLEWIGRIDPANDNTLYASKFQGKATISADTSKNTAYLQMNSLRAGDTAVYYCGRGYGYYVFDHWGQGTLVTVSSGSTSGGGSGGGSGGGGSSDVQITQSPSSLSASVGDRVTITCRTSRSISQYLAWYQQKPGKVPKLLIYSGSTLQSGVPSRFSGSGSGTDFTLTISSLQPEDVATYYCQQHNENPLTFGGGTKVEIKEPKSCDKTHTCPPCGGGSSGGGSGGQPREPQVYTLPPSRDELTKNQVSLTCLVKGFYPSDIAVEWESNGQPENNYKTTPPVLDSDGSFFLYSKLTVDKSRWQQGNVFSCSVMHEALHNHYTQKSLSLSPGK | 2.2e+08 | 4.6 | 0.0022 | 480000 | 
IAb_Mb1d_CD8 (other, also called variant 1d) DVQITQSPSSLSASVGDRVTITCRTSRSISQYLAWYQQKPGKVPKLLIYSGSTLQSGVPSRFSGSGSGTDFTLTISSLQPEDVATYYCQQHNENPLTFGGGTKVEIKGSTSGGGSGGGSGGGGSSQVQLVQSGAEVKKPGATVKISCKVSGFNIKDTYIHFVQQAPGKGLEWIGRIDPANDNTLYASKFQGKATITADTSTDTAYMELSSLRSEDTAVYYCGRGYGYYVFDHWGQGTLVTVSEPKSCDKTHTCPPCGGGSSGGGSGGQPREPQVYTLPPSRDELTKNQVSLTCLVKGFYPSDIAVEWESNGQPENNYKTTPPVLDSDGSFFLYSKLTVDKSRWQQGNVFSCSVMHEALHNHYTQKSLSLSPGK | 3.4e+08 | 2.9 | 0.002 | 700000 | 
Humanized IAb_Mb2_CD8 (other, Minibody homodimer, tested as transfection supernatant; also called humanized OKT8 minibody VH-VL; humanized variants) QVQLVQSGAEVKKPGATVKISCKVSGFNIKDTYIHWVQQAPGKGLEWMGRIDPANDNTLYASKFQGRVTITADTSTDTAYMELSSLRSEDTAVYYCARGYGYYVFDHWGQGTLVTVSSGSTSGGGSGGGSGGGGSSDVQITQSPSSLSASVGDRVTITCRTSRSISQYLAWYQQKPGKVPKLLIYSGSTLQSGVPSRFSGSGSGTDFTLTISSLQPEDVATYYCQQHNENPLTFGGGTKVEIKEPKSCDKTHTCPPCGGGSSGGGSGGQPREPQVYTLPPSRDELTKNQVSLTCLVKGFYPSDIAVEWESNGQPENNYKTTPPVLDSDGSFFLYSKLTVDKSRWQQGNVFSCSVMHEALHNHYTQKSLSLSPGK |  |  |  |  | binding result [3]: binds
IAb_Mb2c_CD8 (other, also called variant 2c) QVQLVQSGAEVKKPGATVKISCKVSGFNIKDTYIHFVQQAPGKGLEWIGRIDPANDNTLYASKFQGKATITADTSTDTAYMELSSLRSGDTAVYYCGRGYGYYVFDHWGQGTLVTVSSGSTSGGGSGGGSGGGGSSDVQITQSPSSLSASVGDRVTITCRTSRSISQYLAWYQQKPGKVPKLLIYSGSTLQSGVPSRFSGSGSGTDFTLTISSLQPEDVATYYCQQHNENPLTFGGGTKVEIKEPKSCDKTHTCPPCGGGSSGGGSGGQPREPQVYTLPPSRDELTKNQVSLTCLVKGFYPSDIAVEWESNGQPENNYKTTPPVLDSDGSFFLYSKLTVDKSRWQQGNVFSCSVMHEALHNHYTQKSLSLSPGK | 2.2e+08 | 4.5 | 0.0032 | 720000 | 
IAb_Mb1a_CD8 (other, also called variant 1a) DVQITQSPSSLSASVGDRVTITCRTSRSISQYLAWYQQKPGKVPKLLIYSGSTLQSGVPSRFSGSGSGTDFTLTISSLQPEDVATYYCQQHNENPLTFGGGTKVEIKGSTSGGGSGGGSGGGGSSEVQLVESGGGLVQPGGSLRLSCAASGFNIKDTYIHFVRQAPGKGLEWIGRIDPANDNTLYASKFQGKATISADTSKNTAYLQMNSLRAGDTAVYYCGRGYGYYVFDHWGQGTLVTVSSEPKSCDKTHTCPPCGGGSSGGGSGGQPREPQVYTLPPSRDELTKNQVSLTCLVKGFYPSDIAVEWESNGQPENNYKTTPPVLDSDGSFFLYSKLTVDKSRWQQGNVFSCSVMHEALHNHYTQKSLSLSPGK | 5.3e+08 | 1.9 | 0.0012 | 650000 | 
IAb_M1b_CD8 IgG2 NH (other, Minibody homodimer with native IgG2 hinge and IgG2 CH3) DVQITQSPSSLSASVGDRVTITCRTSRSISQYLAWYQQKPGKVPKLLIYSGSTLQSGVPSRFSGSGSGTDFTLTISSLQPEDVATYYCQQHNENPLTFGGGTKVEIKGSTSGGGSGGGSGGGGSSEVQLVESGGGLVQPGGSLRLSCAASGFNIKDTYIHFVRQAPGKGLEWIGRIDPANDNTLYASKFQGKATISADTSKNTAYLQMNSLRAEDTAVYYCGRGYGYYVFDHWGQGTLVTVSSERKCCVECPPCPAPPVAGPGQPREPQVYTLPPSREEMTKNQVSLTCLVKGFYPSDIAVEWESNGQPENNYKTTPPMLDSDGSFFLYSKLTVDKSRWQQGNVFSCSVMHEALHNHYTQKSLSLSPGK |  |  |  |  | EC50 [4]: 0.08 nM; EC50 [5]: 0.08 nM
IAb_M1b_CD8 IgG2 EH (other, Minibody homodimer with artificial IgG2 hinge-extension and IgG2 CH3) DVQITQSPSSLSASVGDRVTITCRTSRSISQYLAWYQQKPGKVPKLLIYSGSTLQSGVPSRFSGSGSGTDFTLTISSLQPEDVATYYCQQHNENPLTFGGGTKVEIKGSTSGGGSGGGSGGGGSSEVQLVESGGGLVQPGGSLRLSCAASGFNIKDTYIHFVRQAPGKGLEWIGRIDPANDNTLYASKFQGKATISADTSKNTAYLQMNSLRAEDTAVYYCGRGYGYYVFDHWGQGTLVTVSSERKCCVECPPCPGGGSSGGGSGGQPREPQVYTLPPSREEMTKNQVSLTCLVKGFYPSDIAVEWESNGQPENNYKTTPPMLDSDGSFFLYSKLTVDKSRWQQGNVFSCSVMHEALHNHYTQKSLSLSPGK |  |  |  |  | EC50 [4]: 0.13 nM; EC50 [5]: 0.13 nM
IAb_Mb2d_CD8 (other, also called variant 2d) QVQLVQSGAEVKKPGATVKISCKVSGFNIKDTYIHFVQQAPGKGLEWIGRIDPANDNTLYASKFQGKATITADTSTDTAYMELSSLRSEDTAVYYCGRGYGYYVFDHWGQGTLVTVSGSTSGGGSGGGSGGGGSSDVQITQSPSSLSASVGDRVTITCRTSRSISQYLAWYQQKPGKVPKLLIYSGSTLQSGVPSRFSGSGSGTDFTLTISSLQPEDVATYYCQQHNENPLTFGGGTKVEIKEPKSCDKTHTCPPCGGGSSGGGSGGQPREPQVYTLPPSRDELTKNQVSLTCLVKGFYPSDIAVEWESNGQPENNYKTTPPVLDSDGSFFLYSKLTVDKSRWQQGNVFSCSVMHEALHNHYTQKSLSLSPGK | 1.8e+08 | 5.5 | 0.0029 | 540000 | 
Humanized IAb_Mb1_CD8 (other, Minibody homodimer, tested as transfection supernatant; also called humanized OKT8 minibody VL-VH; humanized variants) DVQITQSPSSLSASVGDRVTITCRTSRSISQYLAWYQQKPGKVPKLLIYSGSTLQSGVPSRFSGSGSGTDFTLTISSLQPEDVATYYCQQHNENPLTFGGGTKVEIKGSTSGGGSGGGSGGGGSSQVQLVQSGAEVKKPGATVKISCKVSGFNIKDTYIHWVQQAPGKGLEWMGRIDPANDNTLYASKFQGRVTITADTSTDTAYMELSSLRSEDTAVYYCARGYGYYVFDHWGQGTLVTVSSEPKSCDKTHTCPPCGGGSSGGGSGGQPREPQVYTLPPSRDELTKNQVSLTCLVKGFYPSDIAVEWESNGQPENNYKTTPPVLDSDGSFFLYSKLTVDKSRWQQGNVFSCSVMHEALHNHYTQKSLSLSPGK |  |  |  |  | binding result [3]: binds
